{"source": "the supplement of paper PMC10567573", "parents": {"B1": {"name": "KCNAB2 (parent)", "chain": "IPPYSRASLKGYQWLKDKILSEEG"}}, "data": [{"variants_of": "B1", "experiment": "protein stability index of a GFP-peptide fusion (GPS, HEK-293T) (PSI 1-6); higher = more stable", "settings": "c terminus: a fixed tail appended", "values": [{"variant": "IPPYSRASLKGYEWLKDKILSEEG", "protein stability index": 2.34}, {"variant": "IPPYSRASLKGYSWLKDKILSEEG", "protein stability index": 2.95}, {"variant": "IPPYSRASLKGYVWLKDKILSEEG", "protein stability index": 2.08}, {"variant": "IPPYSRASLKGYAWLKDKILSEEG", "protein stability index": 1.82}, {"variant": "IPPYSRASLKGYGWLKDKILSEEG", "protein stability index": 1.93}, {"variant": "IPPYSRASLKGYTWLKDKILSEEG", "protein stability index": 2.55}, {"variant": "IPPYSRASLKGYCWLKDKILSEEG", "protein stability index": 1.84}, {"variant": "IPPYSRASLIGYQWLKDKILSEEG", "protein stability index": 2.2}, {"variant": "IPPYSRASLAGYQWLKDKILSEEG", "protein stability index": 2.47}, {"variant": "IPPYSRASLVGYQWLKDKILSEEG", "protein stability index": 2.14}, {"variant": "IPPYSRASLQGYQWLKDKILSEEG", "protein stability index": 3.27}, {"variant": "IPPYSRASLHGYQWLKDKILSEEG", "protein stability index": 2.91}, {"variant": "IPPYSRASLWGYQWLKDKILSEEG", "protein stability index": 2.29}, {"variant": "IPPYSRASLGGYQWLKDKILSEEG", "protein stability index": 2.88}, {"variant": "IPPYSRASLEGYQWLKDKILSEEG", "protein stability index": 3.57}, {"variant": "IPPYSRASLCGYQWLKDKILSEEG", "protein stability index": 1.72}, {"variant": "IPPYSRASLDGYQWLKDKILSEEG", "protein stability index": 3.49}, {"variant": "IPPYSRASLLGYQWLKDKILSEEG", "protein stability index": 2.37}, {"variant": "IPPYSRASLNGYQWLKDKILSEEG", "protein stability index": 2.42}, {"variant": "IPPYSRASLFGYQWLKDKILSEEG", "protein stability index": 1.67}, {"variant": "IPPYSRASLRGYQWLKDKILSEEG", "protein stability index": 1.68}, {"variant": "IPPYSRASLTGYQWLKDKILSEEG", "protein stability index": 3.38}, {"variant": "IPPYSRASLMGYQWLKDKILSEEG", "protein stability index": 2.4}, {"variant": "IPPYSRASLPGYQWLKDKILSEEG", "protein stability index": 3.76}, {"variant": "IPPYSRASLYGYQWLKDKILSEEG", "protein stability index": 2.84}, {"variant": "IPPYSRASLSGYQWLKDKILSEEG", "protein stability index": 3.34}, {"variant": "IPPYSRASLKGYQWLKDFILSEEG", "protein stability index": 1.96}, {"variant": "IPPYSRASLKGYQWLKDEILSEEG", "protein stability index": 2.95}, {"variant": "IPPYSRASLKGYQWLKDAILSEEG", "protein stability index": 2.63}, {"variant": "IPPYSRASLKGYQWLKDDILSEEG", "protein stability index": 2.77}, {"variant": "IPPYSRASLKGYQWLKDCILSEEG", "protein stability index": 2.51}, {"variant": "IPPYSRASLKGYQWLKDGILSEEG", "protein stability index": 2.95}, {"variant": "IPPYSRASLKNYQWLKDKILSEEG", "protein stability index": 2.68}, {"variant": "IPPYSRASLKAYQWLKDKILSEEG", "protein stability index": 1.8}, {"variant": "IPPYSRASLKKYQWLKDKILSEEG", "protein stability index": 1.78}, {"variant": "IPPYSRASLKCYQWLKDKILSEEG", "protein stability index": 1.92}, {"variant": "IPPYSRASLKTYQWLKDKILSEEG", "protein stability index": 2.1}, {"variant": "IPPYSRASLKEYQWLKDKILSEEG", "protein stability index": 3.51}, {"variant": "IPPYSRASLKFYQWLKDKILSEEG", "protein stability index": 3.33}, {"variant": "IPPYSRASLKWYQWLKDKILSEEG", "protein stability index": 3.38}, {"variant": "IPPYSRASLKHYQWLKDKILSEEG", "protein stability index": 2.19}, {"variant": "IPPYSRASLKRYQWLKDKILSEEG", "protein stability index": 2.66}, {"variant": "IPPYSRASLKQYQWLKDKILSEEG", "protein stability index": 2.96}, {"variant": "IPPYSRASLKMYQWLKDKILSEEG", "protein stability index": 2.08}, {"variant": "IPPYSRASLKIYQWLKDKILSEEG", "protein stability index": 2.37}, {"variant": "IPPYSRASLKPYQWLKDKILSEEG", "protein stability index": 2.46}, {"variant": "IPPYSRASLKSYQWLKDKILSEEG", "protein stability index": 1.64}, {"variant": "IPPYSRASLKYYQWLKDKILSEEG", "protein stability index": 2.91}, {"variant": "IPPYSRASLKDYQWLKDKILSEEG", "protein stability index": 2.89}, {"variant": "IPPYSRVSLKGYQWLKDKILSEEG", "protein stability index": 2.41}, {"variant": "IPPYSRPSLKGYQWLKDKILSEEG", "protein stability index": 2.45}, {"variant": "IPPYSRQSLKGYQWLKDKILSEEG", "protein stability index": 2.58}, {"variant": "IPPYSRRSLKGYQWLKDKILSEEG", "protein stability index": 1.95}, {"variant": "IPPYSRSSLKGYQWLKDKILSEEG", "protein stability index": 3.32}, {"variant": "IPPYSRYSLKGYQWLKDKILSEEG", "protein stability index": 1.46}, {"variant": "IPPYSRNSLKGYQWLKDKILSEEG", "protein stability index": 2.22}, {"variant": "IPPYSRTSLKGYQWLKDKILSEEG", "protein stability index": 2.23}, {"variant": "IPPYSRASTKGYQWLKDKILSEEG", "protein stability index": 3.14}, {"variant": "IPPYSRASMKGYQWLKDKILSEEG", "protein stability index": 2.24}, {"variant": "IPPYSRASRKGYQWLKDKILSEEG", "protein stability index": 3.33}, {"variant": "IPPYSRASAKGYQWLKDKILSEEG", "protein stability index": 2.56}, {"variant": "IPPYSRASFKGYQWLKDKILSEEG", "protein stability index": 2.61}, {"variant": "IPPYSRASIKGYQWLKDKILSEEG", "protein stability index": 2.56}, {"variant": "IPPYSRASGKGYQWLKDKILSEEG", "protein stability index": 3.22}, {"variant": "IPPYSRASDKGYQWLKDKILSEEG", "protein stability index": 2.44}, {"variant": "IPPYSRASSKGYQWLKDKILSEEG", "protein stability index": 3.84}, {"variant": "IPPYSRASCKGYQWLKDKILSEEG", "protein stability index": 1.77}, {"variant": "IPPYSRASWKGYQWLKDKILSEEG", "protein stability index": 2.22}, {"variant": "IPPYSRASEKGYQWLKDKILSEEG", "protein stability index": 3.2}, {"variant": "IPPYSRASQKGYQWLKDKILSEEG", "protein stability index": 2.28}, {"variant": "IPPYSRASPKGYQWLKDKILSEEG", "protein stability index": 3.25}, {"variant": "IPPYSRASYKGYQWLKDKILSEEG", "protein stability index": 2.4}, {"variant": "IPPYSRASNKGYQWLKDKILSEEG", "protein stability index": 3.15}, {"variant": "IPPYSRASHKGYQWLKDKILSEEG", "protein stability index": 2.38}, {"variant": "IPPYSRASKKGYQWLKDKILSEEG", "protein stability index": 2.53}, {"variant": "IPPYSRASLKGYQWLKTKILSEEG", "protein stability index": 1.68}, {"variant": "IPPYSRASLKGYQWLKYKILSEEG", "protein stability index": 1.8}, {"variant": "IPPYSRASLKGYQWLKKKILSEEG", "protein stability index": 2.04}, {"variant": "IPPYSRASLKGYQWLKHKILSEEG", "protein stability index": 2.69}, {"variant": "IPPYSRASLKGYQWLKRKILSEEG", "protein stability index": 1.91}, {"variant": "IPPYSRASLKGYQWLKLKILSEEG", "protein stability index": 1.93}, {"variant": "IPPYSRASLKGYQWLKAKILSEEG", "protein stability index": 2.65}, {"variant": "IPPYSRASLKGYQWLKGKILSEEG", "protein stability index": 2.03}, {"variant": "IPPYSRASLKGYQWLKVKILSEEG", "protein stability index": 2.51}, {"variant": "IPPYSRASLKGYQWLKPKILSEEG", "protein stability index": 2.46}, {"variant": "IPPYSRASLKGYQWLKWKILSEEG", "protein stability index": 1.72}, {"variant": "IPPYSRASLKGYQWLKQKILSEEG", "protein stability index": 2.18}, {"variant": "IPPYSRASLKGYQWLKIKILSEEG", "protein stability index": 1.69}, {"variant": "IPPYSRASLKGYQWLKMKILSEEG", "protein stability index": 1.57}, {"variant": "IPPYSRASLKGYQWLKCKILSEEG", "protein stability index": 1.3}, {"variant": "IPPYSRASLKGYQWLKSKILSEEG", "protein stability index": 1.6}, {"variant": "IPPYSRASLKGYQWLKFKILSEEG", "protein stability index": 2.25}, {"variant": "IPPYSRASLKGYQWLKNKILSEEG", "protein stability index": 2.39}, {"variant": "IPPYSRASLKGYQWLKEKILSEEG", "protein stability index": 1.26}]}]}
